Results taken from PMC4250914 (Scientific Reports, 2014).

Biological target: T1, His-VPS41 (human, UniProt P49754 1-854)
T1 sequence: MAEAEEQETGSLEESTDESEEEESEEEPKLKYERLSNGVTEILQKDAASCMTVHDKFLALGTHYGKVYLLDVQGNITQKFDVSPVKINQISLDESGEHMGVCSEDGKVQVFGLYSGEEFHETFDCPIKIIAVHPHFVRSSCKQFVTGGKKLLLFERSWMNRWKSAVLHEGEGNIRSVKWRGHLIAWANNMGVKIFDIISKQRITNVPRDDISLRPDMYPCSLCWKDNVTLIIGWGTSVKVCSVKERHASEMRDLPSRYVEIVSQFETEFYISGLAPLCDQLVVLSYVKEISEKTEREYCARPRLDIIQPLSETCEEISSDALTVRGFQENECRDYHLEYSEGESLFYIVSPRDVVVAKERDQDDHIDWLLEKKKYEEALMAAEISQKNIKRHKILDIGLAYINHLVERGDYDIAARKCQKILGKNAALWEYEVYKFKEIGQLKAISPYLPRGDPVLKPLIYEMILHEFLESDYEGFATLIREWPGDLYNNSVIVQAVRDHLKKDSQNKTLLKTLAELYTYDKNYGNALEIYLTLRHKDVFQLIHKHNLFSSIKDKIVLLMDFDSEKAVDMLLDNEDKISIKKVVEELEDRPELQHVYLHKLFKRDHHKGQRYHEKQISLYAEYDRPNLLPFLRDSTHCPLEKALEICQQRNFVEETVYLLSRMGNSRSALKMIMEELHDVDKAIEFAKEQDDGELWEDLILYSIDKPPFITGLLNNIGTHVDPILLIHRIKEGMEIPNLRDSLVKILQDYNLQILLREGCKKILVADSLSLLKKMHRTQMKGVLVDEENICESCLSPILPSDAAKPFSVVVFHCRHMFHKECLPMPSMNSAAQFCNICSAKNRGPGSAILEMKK
Assay: pull-down

B1: GST-RILP (natural protein)
chain: MEPRRAAPGVPGWGSREAAGSASAAELVYHLAGALGTELQDLARRFGPEAAAGLVPLVVRALELLEQAAVGPAPDSLQVSAQPAEQELRRLREENERLRRELRAGPQEERALLRQLKEVTDRQRDELRAHNRDLRQRGQETEALQEQLQRLLLVNAELRHKLAAMQTQLRAAQDRERERQQPGEAATPQAKERARGQAGRPGHQHGQEPEWATAGAGAPGNPEDPAEAAQQLGRPSEAGQCRFSREEFEQILQERNELKAKVFLLKEELAYFQRELLTDHRVPGLLLEAMKVAVRKQRKKIKAKMLGTPEEAESSEDEAGPWILLSDDKGDHPPPPESKIQSFFGLWYRGKAESSEDETSSPAPSKLGGEEEAQPQSPAPDPPCSALHEHLCLGASAAPEA
  binding result: binds
